{
  "source": "patent US20250277030A1",
  "about": "(Zymeworks, published 2025)",
  "key": {"cynomolgus monkey NaPi2b [1]": {"target": "T1, cynomolgus monkey NaPi2b (cynomolgus monkey, UniProt O95436 1-690 (human entry))", "T1 construct": "Transiently expressed on HEK293-6e cells; also called Cyno NaPi2b", "T1 chain": "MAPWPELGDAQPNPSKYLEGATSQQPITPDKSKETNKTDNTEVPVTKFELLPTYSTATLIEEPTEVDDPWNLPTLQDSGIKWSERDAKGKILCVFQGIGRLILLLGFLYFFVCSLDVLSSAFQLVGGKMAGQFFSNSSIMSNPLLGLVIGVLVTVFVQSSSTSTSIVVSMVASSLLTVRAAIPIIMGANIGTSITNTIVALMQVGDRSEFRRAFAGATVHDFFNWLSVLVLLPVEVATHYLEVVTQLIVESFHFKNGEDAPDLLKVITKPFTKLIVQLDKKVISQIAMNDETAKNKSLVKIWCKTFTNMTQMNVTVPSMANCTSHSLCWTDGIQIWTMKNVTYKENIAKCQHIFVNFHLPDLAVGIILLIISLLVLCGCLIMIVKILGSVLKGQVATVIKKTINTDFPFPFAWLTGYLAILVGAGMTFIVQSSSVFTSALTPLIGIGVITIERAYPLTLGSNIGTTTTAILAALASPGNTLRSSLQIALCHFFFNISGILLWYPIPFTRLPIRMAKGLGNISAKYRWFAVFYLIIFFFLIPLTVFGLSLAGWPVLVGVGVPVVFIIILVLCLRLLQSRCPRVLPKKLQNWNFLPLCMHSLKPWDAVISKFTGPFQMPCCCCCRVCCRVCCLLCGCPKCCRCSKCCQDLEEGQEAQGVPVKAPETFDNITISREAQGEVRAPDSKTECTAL", "assay": "flow cytometry, HEK293-6e cells transfected with cynomolgus NaPi2b", "method": "(§1) The binding cross-reactivity of humanized antibody variant v29456 to human, cynomolgus and mouse NaPi2b was assessed by flow cytometry using HEK293-6e transfected cells.\n(§2) Briefly, HEK293-6e cells were transfected for ˜24 hours to transiently express human NaPi2b, cynomolgus or mouse NaPi2b, at 1 μg of DNA per 1 million cells. Following transfection, 50,000 cells per well were seeded in V-bottom 96-well plates and incubated with 200 nM of primary antibody for 18-24 hours at 4° C. to prevent internalization. Post-incubation, cells were washed and stained with anti-Human IgG Fc AF647 conjugate (Jackson Immuno Research Labs, West Grove, PA, Cat. No. 109-605-098, Lot. No. 124868) at 4° C. for 1 hour. Following staining and washing, fluorescence was detected by flow cytometry on BD LSRFortessa™ Cell Analyzer (BD Biosciences, Franklin Lake, NJ) with 10,000 minimum events collected per well. The AF647/APC-A GeoMean (fluorescence signal geometric mean, proportional to anti-Human AF647 binding) was calculated for the live singlet cell population for each primary antibody using FlowJo™ v8 software (BD Biosciences, Franklin Lake, NJ). The Bmax and Kd of each primary antibody were calculated using GraphPad Prism Version 9 (GraphPad Software, San Diego, CA)"}, "[2]": {"target": "T2, human sodium-dependent phosphate transporter 2B (NaPi2b) (human, UniProt O95436 1-690)", "T2 construct": "UniProt ID is given as 095436 [sic]; also called hNaPi2b; Hu NaPi2b", "T2 sequence": "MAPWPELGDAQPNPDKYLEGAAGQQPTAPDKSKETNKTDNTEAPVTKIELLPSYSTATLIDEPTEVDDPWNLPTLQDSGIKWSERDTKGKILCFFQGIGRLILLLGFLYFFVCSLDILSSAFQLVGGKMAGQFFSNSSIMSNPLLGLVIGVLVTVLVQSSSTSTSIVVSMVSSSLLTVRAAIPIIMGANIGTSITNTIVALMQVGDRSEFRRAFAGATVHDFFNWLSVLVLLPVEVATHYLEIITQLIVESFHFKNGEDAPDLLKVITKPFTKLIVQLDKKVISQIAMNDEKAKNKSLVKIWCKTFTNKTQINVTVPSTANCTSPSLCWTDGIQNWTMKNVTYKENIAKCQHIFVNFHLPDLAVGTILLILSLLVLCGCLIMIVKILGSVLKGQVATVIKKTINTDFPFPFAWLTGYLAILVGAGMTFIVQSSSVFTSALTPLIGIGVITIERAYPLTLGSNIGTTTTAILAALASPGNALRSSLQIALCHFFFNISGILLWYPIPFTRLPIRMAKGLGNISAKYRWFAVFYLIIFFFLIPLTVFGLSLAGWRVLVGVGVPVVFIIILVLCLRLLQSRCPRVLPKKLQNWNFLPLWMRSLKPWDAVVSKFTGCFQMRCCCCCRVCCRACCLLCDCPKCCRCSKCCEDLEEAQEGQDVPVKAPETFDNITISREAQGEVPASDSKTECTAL", "assay": "flow cytometry, HEK293-6e cells transfected with human NaPi2b; apparent Kd", "method": "The binding cross-reactivity of humanized antibody variant v38591 to human NaPi2b, NaPi2a, and NaPi2c was assessed by flow cytometry using HEK293-6e transfected cells.\nFollowing transfection, cells were seeded at 50,000 cells/well in conical-bottom 96-well plates and treated with test antibody for 24 hours at 4° C. to prevent internalization. Following incubation, cells were washed and stained with anti-Human IgG Fc AF647 conjugate (Jackson Immuno Research Labs, West Grove, PA; Cat. No. 109-605-098) or anti-Rabbit IgG F(ab″)2 AF647 conjugate (Jackson Immuno Research Labs, West Grove, PA; Cat. No. 111-605-047). Following incubation and washing, fluorescence was detected by flow cytometry on a BD LSRFortessa™ Cell Analyzer (BD Biosciences, Franklin Lake, NJ) with 1,000 minimum events collected per well. The AF647/APC-A GeoMean (fluorescence signal geometric mean, proportional to anti-Human AF647 binding) was calculated for the live cell population using FlowJo™ Version 10.8.1 (BD Biosciences, Franklin Lake, NJ) and plotted for each test antibody using GraphPad Prism Version 9 (GraphPad Software, San Diego, CA)."}, "[3]": {"target": "T2, human sodium-dependent phosphate …", "assay": "flow cytometry, HEK293-6e cells transfected with human NaPi2b; apparent Kd", "method": "as §1, §2", "remark": "listed apart in the source"}, "cynomolgus monkey NaPi2b [4]": {"target": "T1, cynomolgus monkey NaPi2b", "assay": "flow cytometry, HEK293-6e cells transfected with cynomolgus NaPi2b; apparent Kd", "method": "as §1, §2"}, "[5]": {"target": "T2, human sodium-dependent phosphate …", "assay": "flow cytometry, HEK293-6e cells transfected with human NaPi2b", "method": "as §1, §2"}, "mouse NaPi2b": {"target": "T3, mouse NaPi2b (mouse, UniProt Q9DBP0 1-697)", "T3 construct": "Transiently expressed on HEK293-6e cells; also called Ms NaPi2b", "T3 sequence": "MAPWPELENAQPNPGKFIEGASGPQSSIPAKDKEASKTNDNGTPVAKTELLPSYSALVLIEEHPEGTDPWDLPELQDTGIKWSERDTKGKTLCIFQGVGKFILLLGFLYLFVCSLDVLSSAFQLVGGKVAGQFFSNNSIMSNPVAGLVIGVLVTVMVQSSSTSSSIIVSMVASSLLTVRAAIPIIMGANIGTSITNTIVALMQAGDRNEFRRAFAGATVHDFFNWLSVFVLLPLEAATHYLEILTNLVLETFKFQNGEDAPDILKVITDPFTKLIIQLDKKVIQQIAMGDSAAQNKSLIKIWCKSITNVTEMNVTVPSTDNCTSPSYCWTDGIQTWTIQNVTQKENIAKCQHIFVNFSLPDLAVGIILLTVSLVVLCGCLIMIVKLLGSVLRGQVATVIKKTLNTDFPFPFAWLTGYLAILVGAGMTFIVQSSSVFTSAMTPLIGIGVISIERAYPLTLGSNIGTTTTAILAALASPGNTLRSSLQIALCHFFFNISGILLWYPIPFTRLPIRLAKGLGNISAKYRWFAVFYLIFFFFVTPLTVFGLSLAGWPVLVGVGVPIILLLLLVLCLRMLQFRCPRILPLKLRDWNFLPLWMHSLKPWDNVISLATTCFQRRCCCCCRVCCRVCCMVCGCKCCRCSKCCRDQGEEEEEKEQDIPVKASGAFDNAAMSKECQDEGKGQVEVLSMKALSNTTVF", "assay": "flow cytometry, HEK293-6e cells transfected with mouse NaPi2b; apparent Kd above the highest concentration tested"}},
  "note": "Like-named read-outs stand apart in the source and are kept apart here.",
  "data": [
    {"binder": "v18992, reference anti-NaPi2b antibody MX35 (antibody, human IgG1, kappa) heavy 1: GQVQLVQSGAEVVKPGASVKMSCKASGYTFTGYNIHWVKQAPGQGLEWIGAIYPGNGDTSYKQKFRGRATLTADTSTSTVYMELSSLRSEDSAVYYCARGETARATFAYWGQGTLVTVSSASTKGPSVFPLAPSSKSTSGGTAALGCLVKDYFPEPVTVSWNSGALTSGVHTFPAVLQSSGLYSLSSVVTVPSSSLGTQTYICNVNHKPSNTKVDKKVEPKSCDKTHTCPPCPAPELLGGPSVFLFPPKPKDTLMISRTPEVTCVVVDVSHEDPEVKFNWYVDGVEVHNAKTKPREEQYNSTYRVVSVLTVLHQDWLNGKEYKCKVSNKALPAPIEKTISKAKGQPREPQVYVYPPSRDELTKNQVSLTCLVKGFYPSDIAVEWESNGQPENNYKTTPPVLDSDGSFALVSKLTVDKSRWQQGNVFSCSVMHEALHNHYTQKSLSLSPG heavy 2: not shown light: GDIQMTQSPSSLSASVGDRVTITCSASQDIGNFLNWYQQKPGKTVKVLIYYTSSLYSGVPSRFSGSGSGTDYTLTISSLQPEDFATYYCQQYSKLPLTFGQGTKLELKRTVAAPSVFIFPPSDEQLKSGTASVVCLLNNFYPREAKVQWKVDNALQSGNSQESVTEQDSKDSTYSLSSTLTLSKADYEKHKVYACEVTHQGLSSPVTKSFNRGEC", "values": [
      {"measurement": "Bmax (APC-A GeoMean)", "setting": "cynomolgus monkey NaPi2b [1]", "result": 2360, "unit": "APC-A GeoMean"},
      {"measurement": "Kd", "setting": "[2]", "result": 1.51, "unit": "nM"},
      {"measurement": "Kd", "setting": "[3]", "result": 1.98, "unit": "nM"},
      {"measurement": "Kd", "setting": "cynomolgus monkey NaPi2b [4]", "result": 31, "unit": "nM"},
      {"measurement": "Bmax (APC-A GeoMean)", "setting": "[5]", "result": 1900, "unit": "APC-A GeoMean"},
      {"measurement": "Kd", "setting": "mouse NaPi2b", "result": "> 200", "unit": "nM"}
    ]}
  ]
}
